Experiment [1] has as its target T1, EphA2-Fc (extracellular domain of human EphA2 linked to human IgG1 constant region) (human, UniProt P29317 24-537).
T1 construct: extracellular domain; Used as immunogen, ELISA antigen and BIACORE ligand; not shown: human IgG1 constant region
Briefly: competitive ELISA on EphA2-Fc; competitor: labeled EA2; x axis is the ratio of unlabeled to labeled antibody. The text has this: Supernatants from bulk culture hybridomas were screened for immunoreactivity against EphA2 (Table 6, column 4) using standard molecular biological techniques (e.g., ELISA immunoassay). Supernatants were further screened for the ability to inhibit an EphA2 monoclonal antibody (EA2; ATCC deposit no. PTA-4380; see co-pending U.S. patent application Ser. No. 10/436,783, entitled “EphA2 Agonistic Monoclonal Antibodies and Methods of Use Thereof” filed May 12, 2003) from binding to EphA2. […] Both antibodies could decrease the amount of labeled EA2 binding to EphA2-Fc with increasing concentrations of unlabeled antibody added. Additionally, many of the other antibodies could inhibit EA2 binding to EphA2 as well (Table 6, column 3).

Experiment [2] deals with T2, EphA2 on cells (MDA-MB-231, MCF-10A, MCF-7 transfected with human EphA2) (human, UniProt P29317 24-976).
T2 construct: whole, on cells; MDA-MB-231 and MCF-10A carry endogenous EphA2 and no species is stated for them
Briefly: immunofluorescence, 10 µg/ml at 4 C, MDA-MB-231 and MCF-10A cells. The procedure: The epitopes of EphA2 antibodies were characterized. […] EA2 preferentially binds EphA2 on transformed cells (FIG. 16D). […] Treatment of non-transformed MCF-10A cells with 4 mM EGTA for 20 min. dissociated the cells. EA2 bound EphA2 on the EGTA dissociated cells but not the untreated cells (FIGS. 17A-17B).

Experiment [3] concerns the target T1, EphA2-Fc (extracellular domain of human …). Briefly: BIACORE, EphA2-Fc immobilized on a CM5 chip, double-referenced; undiluted hybridoma supernatant. The procedure:
EphA2-Fc was immobilize to a surface on a CM5 sensorchip using a standard amine (70 μl of a 1:1 mix of NHS/EDC) coupling chemistry. Briefly, a 400 nM solution of EphA2-Fc in 10 mM NaOAc, pH4, was then injected over the activated surface to a density of 1000-1100 RU's. Unused reactive esters were subsequently “capped” with a 70 μinjection of 1M Et-NH2. Similarly, an activated and “capped” control surface was prepared on the same sensor chip without protein to serve as a reference surface.
A 250 μl injection of each of the EphA2 hybridoma supernatants was made over both the EphA2-Fc and control surfaces, and the binding responses were recorded. These supernatants were used undiluted. Following each injection, at least 10 min. of dissociation phase data was collected. Purified EphA2 monoclonal antibody EA2 was prepared to serve as a positive control (at 1 μg, 5 μg and 25 μg per 250 μl of growth medium). […] Control injections of growth medium across these surfaces were also made. Following each binding cycle, the EphA2-Fc surface was regenerated with a single 1 min. pulse (injection) of 1M NaCl-50 mM NaOH.
(In general: SPR reads the build-up and loss of mass on a sensor chip optically.)

T1 sequence (P29317 24-537): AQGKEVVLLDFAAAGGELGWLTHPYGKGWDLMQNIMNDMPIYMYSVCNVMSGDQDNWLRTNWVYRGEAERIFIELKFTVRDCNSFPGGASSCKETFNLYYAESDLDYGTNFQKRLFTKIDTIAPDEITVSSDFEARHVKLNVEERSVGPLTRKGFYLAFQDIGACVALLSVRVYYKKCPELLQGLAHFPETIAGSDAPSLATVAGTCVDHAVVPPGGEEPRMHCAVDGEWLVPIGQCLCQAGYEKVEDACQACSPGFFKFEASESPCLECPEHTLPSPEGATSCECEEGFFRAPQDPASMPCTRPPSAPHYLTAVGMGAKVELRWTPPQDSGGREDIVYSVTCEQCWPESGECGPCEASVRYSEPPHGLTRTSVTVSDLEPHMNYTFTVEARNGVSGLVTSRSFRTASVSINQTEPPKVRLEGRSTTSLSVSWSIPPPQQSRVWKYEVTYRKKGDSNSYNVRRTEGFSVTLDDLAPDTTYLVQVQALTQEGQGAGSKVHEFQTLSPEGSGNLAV
T2 sequence (P29317 24-976): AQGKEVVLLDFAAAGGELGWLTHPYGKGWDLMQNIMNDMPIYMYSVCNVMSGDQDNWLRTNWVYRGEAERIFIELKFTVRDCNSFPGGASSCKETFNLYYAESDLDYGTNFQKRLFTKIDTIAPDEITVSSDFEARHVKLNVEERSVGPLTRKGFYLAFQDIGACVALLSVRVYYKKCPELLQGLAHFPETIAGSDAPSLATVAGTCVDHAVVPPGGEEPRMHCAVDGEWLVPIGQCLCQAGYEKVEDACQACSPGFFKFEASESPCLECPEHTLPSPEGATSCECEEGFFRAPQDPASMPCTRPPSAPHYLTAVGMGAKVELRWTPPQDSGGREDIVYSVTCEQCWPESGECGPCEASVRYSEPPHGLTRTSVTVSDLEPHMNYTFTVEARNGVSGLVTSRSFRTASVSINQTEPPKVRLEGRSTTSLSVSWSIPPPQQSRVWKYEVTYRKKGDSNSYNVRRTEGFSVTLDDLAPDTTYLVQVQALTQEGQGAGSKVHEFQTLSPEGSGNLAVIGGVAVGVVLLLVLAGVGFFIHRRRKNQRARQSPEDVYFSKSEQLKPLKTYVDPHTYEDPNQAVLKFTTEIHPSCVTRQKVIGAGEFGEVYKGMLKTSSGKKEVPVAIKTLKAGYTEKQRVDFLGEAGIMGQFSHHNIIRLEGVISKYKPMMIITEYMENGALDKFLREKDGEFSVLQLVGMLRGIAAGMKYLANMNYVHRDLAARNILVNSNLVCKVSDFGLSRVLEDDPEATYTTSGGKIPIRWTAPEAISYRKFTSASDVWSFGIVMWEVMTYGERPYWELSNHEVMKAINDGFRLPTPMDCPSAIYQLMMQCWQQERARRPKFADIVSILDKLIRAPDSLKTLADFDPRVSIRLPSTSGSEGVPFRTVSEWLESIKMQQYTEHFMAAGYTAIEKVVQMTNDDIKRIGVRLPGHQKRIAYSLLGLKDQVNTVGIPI

B1: Eph099B-208.261 (ATCC PTA-4573) (antibody, V domains shown)
VH: QVQLQQPGAELVKPGASVKLSCKASGYTFTSYWMHWVKQRPGQGLEWIGMIHPNSGSTNYNEKFKSKATLTVDKSSSTAYMRLSSLTSEDSAVYYCARGGNMVGGGYWGQGTTLTVSS
VL: QIVLTQSPALMSASPGEKVTMTCSASSSVSYMYWYQQKPRSSPKPWIYLTTNLASGVPARFSGSGSGTSYSLTISSMEAEDAATYYCQQWSSNPFTFGSGTKLEIR
notes: Mouse hybridoma antibody (SJL mice)
For the molecule B1, the binding result in experiment [1] is given as “binds”.

B2: Eph099B-233.152 (ATCC PTA-5194) (antibody, V domains shown)
VH: EVKLVESGGGLVQPGGSLSLSCAASGFTFTDYSMNWVRQPPGKALEWLGFIRNKANDYTTEYSASVKGRFTISRDNSQSILYLQMNALRAEDSATYYCVRYPRYHAMDSWGQGTSVTVSS
VL: DIVLTQSPATLSVTPGDSVNLSCRASQSISNNLHWYQQKSHESPRLLIKYVFQSISGIPSRFSGSGSGTDFTLSINSVETEDFGMYFCQQSNSWPLTFGAGTKLELK
notes: Mouse hybridoma antibody (SJL mice); detected with anti-mouse IgG
As for B2, the binding result in experiment [2] and in experiment [3] was “binds” in each case.
